In US20260209348A1 (University of California, published 2026):
Read-outs that look alike come from different tables or passages of the source.

B1: h6E6-007 (antibody, human IgG1, V domains shown)
VH: EVQLVESGGGLVKPGGSLRLSCAASGFTFSGYGLSWVRQAPGKGLEWVSTISSGGGYTHYAPSVKGRFTISRDNAKNSLYLQMNSLRAEDTAVYYCARHPRDFSYAQDYWGQGTTVTVSS
VL: EIVMTQSPATLSVSPGERATLSCKASQDVGHYVAWYQQKPGQAPRLLIYWASTRATGIPARFSGSGSGTEFTLTISSLQSEDFAVYYCQQYNIYPWTFGQGTKVEIK
notes: human IgG1; also called clone 7
B2: h6E6-057 (antibody, human IgG1, V domains shown)
VH: EVQLVESGGGLVKPGGSLRLSCAASGFTFSHYGVSWVRQAPGKGLEWVSTISSGGGYTHYVASVKGRFTISRDNAKNSLYLQMNSLRAEDTAVYYCARHPRDFSYALDYWGQGTTVTVSS
VL: EIVMTQSPATLSVSPGERATLSCKASQDVGHYVAWYQQKPGQAPRLLIYWASTRATGIPARFSGSGSGTEFTLTISSLQSEDFAVYYCQQYNIYPWAFGQGTKVEIK
notes: human IgG1; also called clone 57
B3: h6E6-029 (antibody, human IgG1, V domains shown)
VH: EVQLVESGGGLVKPGGSLRLSCAASGFTFSHYGVSWVRQAPGKGLEWVSTISSGGGYTHYAQSVKGRFTISRDNAKNSLYLQMNSLRAEDTAVYYCARHPRDFSYAQDYWGQGTTVTVSS
VL: EIVMTQSPATLSVSPGERATLSCKASQDVGHYVAWYQQKPGQAPRLLIYWASTRHTGIPARFSGSGSGTEFTLTISSLQSEDFAVYYCQQYNIYPWTFGQGTKVEIK
notes: human IgG1; also called clone 29
B4: h6E6-102 (antibody, human IgG1, V domains shown)
VH: EVQLVESGGGLVKPGGSLRLSCAASGFTFSKYGLSWVRQAPGKGLEWVSTISSGGGYTHYVESVKGRFTISRDNAKNSLYLQMNSLRAEDTAVYYCARHPRDFSYASDYWGQGTTVTVSS
VL: EIVMTQSPATLSVSPGERATLSCKASQDVGHYVAWYQQKPGQAPRLLIYWASTRATGIPARFSGSGSGTEFTLTISSLQSEDFAVYYCQQYNIYPWTFGQGTKVEIK
notes: human IgG1; also called clone 102
B5: h6E6-072 (antibody, human IgG1, V domains shown)
VH: EVQLVESGGGLVKPGGSLRLSCAASGFTFSQYGHSWVRQAPGKGLEWVSTISSGGGYTHYADSVKGRFTISRDNAKNSLYLQMNSLRAEDTAVYYCARHPRDFSYAQDYWGQGTTVTVSS
VL: EIVMTQSPATLSVSPGERATLSCKASQDVGHYLAWYQQKPGQAPRLLIYWASTRHTGIPARFSGSGSGTEFTLTISSLQSEDFAVYYCQQYNIYPWTFGQGTKVEIK
notes: human IgG1; also called clone 72
B6: h6E6-068 (antibody, human IgG1, V domains shown)
VH: EVQLVESGGGLVKPGGSLRLSCAASGFTFSSYGISWVRQAPGKGLEWVSTISSGGGYTHYAHSVKGRFTISRDNAKNSLYLQMNSLRAEDTAVYYCARHPRDFSYALDYWGQGTTVTVSS
VL: EIVMTQSPATLSVSPGERATLSCKASQDVGHYLAWYQQKPGQAPRLLIYWASTRATGIPARFSGSGSGTEFTLTISSLQSEDFAVYYCQQYNIYPWTFGQGTKVEIK
notes: human IgG1; also called clone 68
B7: h6E6-056 (antibody, human IgG1, V domains shown)
VH: EVQLVESGGGLVKPGGSLRLSCAASGFTFSKYGTSWVRQAPGKGLEWVSTISSGGGYTHYAPSVKGRFTISRDNAKNSLYLQMNSLRAEDTAVYYCARHPRDFSYAQDYWGQGTTVTVSS
VL: EIVMTQSPATLSVSPGERATLSCRASQDVGHYVAWYQQKPGQAPRLLIYWASTRATGIPARFSGSGSGTEFTLTISSLQSEDFAVYYCQQYNIYPWTFGQGTKVEIK
notes: human IgG1; also called clone 56
B8: h6E6-055 (antibody, human IgG1, V domains shown)
VH: EVQLVESGGGLVKPGGSLRLSCAASGFTFSQYGHSWVRQAPGKGLEWVSTISSGGGYTHYAESVKGRFTISRDNAKNSLYLQMNSLRAEDTAVYYCARHPRDFSYAQDYWGQGTTVTVSS
VL: EIVMTQSPATLSVSPGERATLSCKASQDVGHYLAWYQQKPGQAPRLLIYWASTRATGIPARFSGSGSGTEFTLTISSLQSEDFAVYYCQQYNIYPWTFGQGTKVEIK
notes: human IgG1; also called clone 55
B9: h6E6-066 (antibody, human IgG1, V domains shown)
VH: EVQLVESGGGLVKPGGSLRLSCAASGFTFSAYGSSWVRQAPGKGLEWVSTISSGGGYTHYAPSVKGRFTISRDNAKNSLYLQMNSLRAEDTAVYYCARHPRDFSYAHDYWGQGTTVTVSS
VL: EIVMTQSPATLSVSPGERATLSCKASQDVGHYVAWYQQKPGQAPRLLIYWASTRHTGIPARFSGSGSGTEFTLTISSLQSEDFAVYYCQQYNIYPWTFGQGTKVEIK
notes: human IgG1; also called clone 66
B10: h6E6-040 (antibody, human IgG1, V domains shown)
VH: EVQLVESGGGLVKPGGSLRLSCAASGFTFSSYGHSWVRQAPGKGLEWVSTISSGGGYTHYAPSVKGRFTISRDNAKNSLYLQMNSLRAEDTAVYYCARHPRDFSYAHDYWGQGTTVTVSS
VL: EIVMTQSPATLSVSPGERATLSCRASQDVGHYVAWYQQKPGQAPRLLIYWASTRATGIPARFSGSGSGTEFTLTISSLQSEDFAVYYCQQYNIYPWTFGQGTKVEIK
notes: human IgG1; also called clone 40
B11: h6E6-077 (antibody, human IgG1, V domains shown)
VH: EVQLVESGGGLVKPGGSLRLSCAASGFTFSHYGTSWVRQAPGKGLEWVSTISSGGGYTHYAPSVKGRFTISRDNAKNSLYLQMNSLRAEDTAVYYCARHPRDFSYAIDYWGQGTTVTVSS
VL: EIVMTQSPATLSVSPGERATLSCKASQDVGHYVAWYQQKPGQAPRLLIYWASTRATGIPARFSGSGSGTEFTLTISSLQSEDFAVYYCQQYNIYPWTFGQGTKVEIK
notes: human IgG1; also called clone 77

Tests used:
recombinant ROR1 = recombinant ROR1 (Homo sapiens (Human), UniProt Q01973 30-406); experiment: dot blot on nylon membrane, anti-human IgG-HRP
[1] = target: T1, recombinant human ROR2 H349R (human, UniProt Q01974 34-403); experiment: dot blot on nylon membrane, anti-human IgG-HRP
T1 construct: Human residue replaced with the mouse residue

[2] = target: T2, recombinant mouse ROR2 (extracellular portion) (mouse, UniProt Q9Z138 34-403); experiment: dot blot on nylon membrane, anti-human IgG-HRP
T2 construct: also called mROR2

[3] = target: recombinant human ROR2 D354E (human, UniProt Q01974 34-403); experiment: dot blot on nylon membrane, anti-human IgG-HRP
human ROR2 [4] = target: T3, human ROR2 (human, UniProt Q01974 34-403, limits assumed); experiment: SPR
Procedure, shortened: (§1)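 Using surface plasmon resonance, the dissociation constant (Kd, nM) was determined for binding of humanized anti-human ROR2 monoclonal antibodies to human ROR2. These antibodies carry murine complementarity-determining regions in human acceptor frameworks and a human IgG1 constant region. No antigen format, concentrations, temperature, buffer or replicate count is stated.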

human ROR2 [5] = target: T3, human ROR2; experiment: SPR; remark: listed apart in the source
Procedure, shortened: as §1

recombinant ROR1, sequence (Q01973 30-406 limits assumed): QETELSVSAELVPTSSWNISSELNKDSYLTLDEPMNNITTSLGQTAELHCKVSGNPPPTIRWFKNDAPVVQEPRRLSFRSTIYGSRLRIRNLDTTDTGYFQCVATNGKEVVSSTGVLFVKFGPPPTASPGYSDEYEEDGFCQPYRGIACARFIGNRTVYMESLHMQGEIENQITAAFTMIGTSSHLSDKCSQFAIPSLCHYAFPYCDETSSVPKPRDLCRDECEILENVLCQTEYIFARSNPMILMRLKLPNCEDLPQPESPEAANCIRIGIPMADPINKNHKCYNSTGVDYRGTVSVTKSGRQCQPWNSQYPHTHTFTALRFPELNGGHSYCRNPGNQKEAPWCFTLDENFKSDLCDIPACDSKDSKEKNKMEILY
T2 sequence (Q9Z138 other isoform, or with tags, fused parts or gaps limits assumed): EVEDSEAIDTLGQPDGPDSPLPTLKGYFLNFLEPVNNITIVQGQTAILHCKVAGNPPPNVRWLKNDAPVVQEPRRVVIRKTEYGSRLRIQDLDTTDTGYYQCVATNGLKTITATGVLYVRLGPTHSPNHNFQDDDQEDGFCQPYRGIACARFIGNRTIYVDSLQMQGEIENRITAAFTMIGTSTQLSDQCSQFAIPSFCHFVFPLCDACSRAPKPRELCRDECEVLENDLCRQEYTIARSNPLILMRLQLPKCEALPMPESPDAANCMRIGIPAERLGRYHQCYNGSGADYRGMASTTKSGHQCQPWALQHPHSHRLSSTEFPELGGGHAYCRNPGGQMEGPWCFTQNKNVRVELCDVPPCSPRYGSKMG
recombinant human ROR2 D354E, sequence (Q01974 34-403 D354E limits assumed): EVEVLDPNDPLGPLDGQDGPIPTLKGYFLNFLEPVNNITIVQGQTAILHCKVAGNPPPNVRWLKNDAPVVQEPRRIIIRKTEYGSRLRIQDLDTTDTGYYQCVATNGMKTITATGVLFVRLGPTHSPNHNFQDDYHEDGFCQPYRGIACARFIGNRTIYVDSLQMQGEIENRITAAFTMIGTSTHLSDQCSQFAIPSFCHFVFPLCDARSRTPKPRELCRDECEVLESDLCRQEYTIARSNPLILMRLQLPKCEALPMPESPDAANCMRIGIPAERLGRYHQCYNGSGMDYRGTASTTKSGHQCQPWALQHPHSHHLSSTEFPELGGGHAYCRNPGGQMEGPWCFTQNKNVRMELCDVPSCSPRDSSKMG
T3 sequence (Q01974 34-403 limits assumed): as the sequence (Q01974 34-403 D354E limits assumed) above, with E321D counted along it
T1 sequence (Q01974 34-403 H349R limits assumed): as the sequence (Q01974 34-403 D354E limits assumed) above, with H316R, E321D counted along it

binding result (recombinant ROR1) | binding result [1] | binding result [2] | binding result [3] | Kd (human ROR2 [4]) [nM] | Kd (human ROR2 [5]) [nM] | Binder
no binding | no binding | no binding | no binding | 0.318 | 0.318 | B1
no binding | no binding | no binding | no binding | 0.463 | 0.463 | B2
no binding | no binding | no binding | no binding | 0.079 | 0.079 | B3
no binding | no binding | no binding | no binding | 0.319 | 0.319 | B4
no binding | no binding | no binding | no binding | 0.38 | 0.38 | B5
no binding | no binding | no binding | no binding | 0.362 | 0.362 | B6
no binding | no binding | no binding | no binding | 0.024 | 0.024 | B7
no binding | no binding | no binding | no binding | 0.261 | 0.261 | B8
no binding | no binding | no binding | no binding | 0.353 | 0.353 | B9
no binding | no binding | no binding | no binding | 0.186 | 0.186 | B10
no binding | no binding | no binding | no binding | 0.155 | 0.155 | B11
